In publication PMC7226614:

Molecular target: Myc-GRAF3 (human) (UniProt A6NI28)
Chain of UniProt A6NI28 (A6NI28 whole entry): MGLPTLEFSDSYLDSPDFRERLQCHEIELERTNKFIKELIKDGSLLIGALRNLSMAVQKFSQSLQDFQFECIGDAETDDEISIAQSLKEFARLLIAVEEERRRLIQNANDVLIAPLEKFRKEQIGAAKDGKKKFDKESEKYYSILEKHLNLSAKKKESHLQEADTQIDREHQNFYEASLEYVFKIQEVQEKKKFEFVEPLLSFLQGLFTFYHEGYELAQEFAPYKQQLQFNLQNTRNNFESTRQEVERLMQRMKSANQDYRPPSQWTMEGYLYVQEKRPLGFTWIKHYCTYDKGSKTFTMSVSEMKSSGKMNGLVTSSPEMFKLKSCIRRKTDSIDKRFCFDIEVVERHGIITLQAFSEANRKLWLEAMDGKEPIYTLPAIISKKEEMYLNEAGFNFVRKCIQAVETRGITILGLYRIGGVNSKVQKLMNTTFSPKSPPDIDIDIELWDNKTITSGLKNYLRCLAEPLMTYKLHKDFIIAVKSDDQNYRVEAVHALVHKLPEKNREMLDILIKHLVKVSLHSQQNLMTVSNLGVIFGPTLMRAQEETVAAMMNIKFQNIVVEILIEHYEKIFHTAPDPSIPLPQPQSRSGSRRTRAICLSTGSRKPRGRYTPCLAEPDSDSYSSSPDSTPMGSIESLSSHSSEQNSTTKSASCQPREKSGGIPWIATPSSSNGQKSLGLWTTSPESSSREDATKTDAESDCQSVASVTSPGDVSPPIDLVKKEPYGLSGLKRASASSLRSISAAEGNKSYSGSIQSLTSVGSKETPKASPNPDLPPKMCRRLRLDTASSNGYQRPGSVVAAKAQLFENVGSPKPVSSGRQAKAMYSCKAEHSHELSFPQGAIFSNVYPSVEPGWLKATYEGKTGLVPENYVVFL

RhoA-dependent actin stress fibers (phalloidin staining) in RaAoSMC; cells with reduced stress fibers: 58/59 with Myc-GRAF3 alone, 5/72 with Myc-GRAF3 and Flag-BAR-PH: 5 of 72 cells
Substance: Flag-GRAF3 Bar-PH (domain or fragment)
